Laboratory results published in patent publication US20100003237.

Columns and labels:
[1] = target: FITC-labeled collagen (Elastin #CF308)
[2] = target: FITC-labeled collagen (Sigma #C4361)
[3] = target: insoluble collagen conjugated to fluorescein isothiocyanate (FITC) (Anaspec #85111 or Sigma Collagen #C4361)
[4] = target: Soluble rat tail collagen Type I, P02454
Soluble rat tail collagen Type I, P02454, sequence (P02454 152-1207, chain 1 of 2): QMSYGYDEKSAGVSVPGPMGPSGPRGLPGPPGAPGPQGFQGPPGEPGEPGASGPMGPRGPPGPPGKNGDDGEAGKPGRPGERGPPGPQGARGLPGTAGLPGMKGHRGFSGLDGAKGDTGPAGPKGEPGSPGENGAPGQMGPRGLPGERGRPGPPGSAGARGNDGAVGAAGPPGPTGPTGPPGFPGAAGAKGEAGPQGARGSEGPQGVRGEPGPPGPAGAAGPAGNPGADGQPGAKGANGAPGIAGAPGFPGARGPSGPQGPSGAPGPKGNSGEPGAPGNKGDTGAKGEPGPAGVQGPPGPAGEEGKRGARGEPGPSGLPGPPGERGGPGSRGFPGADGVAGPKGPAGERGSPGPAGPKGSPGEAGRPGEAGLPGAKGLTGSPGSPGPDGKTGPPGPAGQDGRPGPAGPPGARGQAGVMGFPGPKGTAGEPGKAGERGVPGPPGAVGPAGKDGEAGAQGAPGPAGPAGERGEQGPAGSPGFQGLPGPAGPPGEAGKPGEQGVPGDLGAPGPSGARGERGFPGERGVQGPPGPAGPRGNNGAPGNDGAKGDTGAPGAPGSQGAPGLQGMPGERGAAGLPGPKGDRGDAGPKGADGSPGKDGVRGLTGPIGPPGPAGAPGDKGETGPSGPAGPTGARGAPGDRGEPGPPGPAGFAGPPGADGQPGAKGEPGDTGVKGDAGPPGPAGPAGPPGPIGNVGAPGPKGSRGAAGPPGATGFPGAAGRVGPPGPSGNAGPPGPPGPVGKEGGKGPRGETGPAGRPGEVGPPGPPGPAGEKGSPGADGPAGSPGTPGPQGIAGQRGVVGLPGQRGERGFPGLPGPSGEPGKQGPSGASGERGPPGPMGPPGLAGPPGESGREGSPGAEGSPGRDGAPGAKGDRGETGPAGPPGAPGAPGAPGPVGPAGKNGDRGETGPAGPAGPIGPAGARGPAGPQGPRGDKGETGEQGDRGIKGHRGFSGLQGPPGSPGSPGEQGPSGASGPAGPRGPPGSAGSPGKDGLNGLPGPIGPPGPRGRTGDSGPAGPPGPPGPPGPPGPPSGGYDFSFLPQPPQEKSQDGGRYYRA
Soluble rat tail collagen Type I, P02454, sequence (chain, as listed by the source, chain 2 of 2): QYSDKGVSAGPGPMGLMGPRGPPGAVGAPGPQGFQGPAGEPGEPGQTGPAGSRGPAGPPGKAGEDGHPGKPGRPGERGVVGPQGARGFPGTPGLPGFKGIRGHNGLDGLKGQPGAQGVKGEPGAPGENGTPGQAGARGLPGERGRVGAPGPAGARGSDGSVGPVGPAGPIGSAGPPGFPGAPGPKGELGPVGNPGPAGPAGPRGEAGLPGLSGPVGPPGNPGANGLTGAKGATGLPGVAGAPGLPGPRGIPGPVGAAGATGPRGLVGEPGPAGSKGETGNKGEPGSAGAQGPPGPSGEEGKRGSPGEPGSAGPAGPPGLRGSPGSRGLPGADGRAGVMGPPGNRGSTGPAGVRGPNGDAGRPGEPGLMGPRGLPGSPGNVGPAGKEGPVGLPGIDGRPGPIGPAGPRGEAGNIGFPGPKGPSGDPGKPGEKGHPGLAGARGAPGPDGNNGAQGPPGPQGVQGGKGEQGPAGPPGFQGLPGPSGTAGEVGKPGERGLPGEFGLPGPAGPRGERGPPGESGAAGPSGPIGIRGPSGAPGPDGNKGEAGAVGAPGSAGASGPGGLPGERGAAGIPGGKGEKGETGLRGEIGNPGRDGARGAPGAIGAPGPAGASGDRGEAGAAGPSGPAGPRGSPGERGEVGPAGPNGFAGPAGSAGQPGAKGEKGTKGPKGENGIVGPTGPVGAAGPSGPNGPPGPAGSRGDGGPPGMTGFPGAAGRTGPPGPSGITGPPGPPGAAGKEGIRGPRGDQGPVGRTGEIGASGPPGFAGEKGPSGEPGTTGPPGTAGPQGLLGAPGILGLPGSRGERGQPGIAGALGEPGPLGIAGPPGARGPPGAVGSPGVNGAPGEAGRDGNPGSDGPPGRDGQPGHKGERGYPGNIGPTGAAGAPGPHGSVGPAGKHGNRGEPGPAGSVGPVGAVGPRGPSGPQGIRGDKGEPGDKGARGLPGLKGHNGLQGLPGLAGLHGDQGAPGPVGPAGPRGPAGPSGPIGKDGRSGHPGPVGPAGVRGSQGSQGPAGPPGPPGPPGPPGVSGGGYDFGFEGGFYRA

B1: Wild type hMMP-1 clone BAP006-2 (expressed in CHO-S cells), activated with AMPA (protein)
chain: FVLTEGNPRWEQTHLTYRIENYTPDLPRADVDHAIEKAFQLWSNVTPLTFTKVSEGQADIMISFVRGDHRDNSPFDGPGGNLAHAFQPGPGIGGDAHFDEDERWTNNFREYNLHRVAAHELGHSLGLSHSTDIGALMYPSYTFSGDVQLAQDDIDGIQAIYGRSQNPVQPIGPQTPKACDSKLTFDAITTIRGEVMFFKDRFYMRTNPFYPEVELNFISVFWPQLPNGLEAAYEFADRDEVRFFKGNKYWAVQGQNVLHGYPKDIYSSFGFPRTVKHIDAALSEENTGKTYFFVANKYWRYDEYKRSMDPGYPKMIAHDFPGIGHKVDAVFMKDGFFYFFHGTRQYKFDPKTKRILTLQKANSWFNCRKN
- RFU, 37° C. (fluorescence of supernatant after 144 hours, replicate 1) [1]: 1730 RFU
- RFU, 37° C. (fluorescence of supernatant after 144 hours, replicate 2) [1]: 2300 RFU
- RFU, Avg 37° C. (fluorescence of supernatant after 144 hours) [1]: 2010 RFU
- RFU, 37° C. (fluorescence of supernatant after 144 hours, replicate 1) [2]: 1270 RFU
- RFU, 37° C. (fluorescence of supernatant after 144 hours, replicate 2) [2]: 1280 RFU
- RFU, Avg 37° C. (fluorescence of supernatant after 144 hours) [2]: 1270 RFU
- cleavage of insoluble collagen (7.5% SDS polyacrylamide gel, Coomassie Blue) [3]: after 24 hours incubation at 25 °C or 37° C., hMMP-1 partially cleaved the α1(I) and α2(I) collagen chains into ¾ and ¼ length digestion products for all hMMP-1 proteins tested

B2: Wild type hMMP-1 clone BAP006-10 (pET303CTHis, expressed in BL21 (DE3) E. coli), activated with AMPA (protein)
chain: FVLTEGNPRWEQTHLTYRIENYTPDLPRADVDHAIEKAFQLWSNVTPLTFTKVSEGQADIMISFVRGDHRDNSPFDGPGGNLAHAFQPGPGIGGDAHFDEDERWTNNFREYNLHRVAAHELGHSLGLSHSTDIGALMYPSYTFSGDVQLAQDDIDGIQAIYGRSQNPVQPIGPQTPKACDSKLTFDAITTIRGEVMFFKDRFYMRTNPFYPEVELNFISVFWPQLPNGLEAAYEFADRDEVRFFKGNKYWAVQGQNVLHGYPKDIYSSFGFPRTVKHIDAALSEENTGKTYFFVANKYWRYDEYKRSMDPGYPKMIAHDFPGIGHKVDAVFMKDGFFYFFHGTRQYKFDPKTKRILTLQKANSWFNCRKNHHHHH
- RFU, 37° C. (fluorescence of supernatant after 144 hours, replicate 1) [1]: 2670 RFU
- RFU, 37° C. (fluorescence of supernatant after 144 hours, replicate 2) [1]: 3060 RFU
- RFU, Avg 37° C. (fluorescence of supernatant after 144 hours) [1]: 2860 RFU
- RFU, 37° C. (fluorescence of supernatant after 144 hours, replicate 1) [2]: 1290 RFU
- RFU, 37° C. (fluorescence of supernatant after 144 hours, replicate 2) [2]: 1340 RFU
- RFU, Avg 37° C. (fluorescence of supernatant after 144 hours) [2]: 1310 RFU
- cleavage of insoluble collagen (7.5% SDS polyacrylamide gel, Coomassie Blue) [3]: after 24 hours incubation at 25 °C or 37° C., hMMP-1 partially cleaved the α1(I) and α2(I) collagen chains into ¾ and ¼ length digestion products for all hMMP-1 proteins tested

B3: hMMP-1 (purchased from R&D Systems, #901-MP), activated with AMPA (protein)
chain: FVLTEGNPRWEQTHLTYRIENYTPDLPRADVDHAIEKAFQLWSNVTPLTFTKVSEGQADIMISFVRGDHRDNSPFDGPGGNLAHAFQPGPGIGGDAHFDEDERWTNNFREYNLHRVAAHELGHSLGLSHSTDIGALMYPSYTFSGDVQLAQDDIDGIQAIYGRSQNPVQPIGPQTPKACDSKLTFDAITTIRGEVMFFKDRFYMRTNPFYPEVELNFISVFWPQLPNGLEAAYEFADRDEVRFFKGNKYWAVQGQNVLHGYPKDIYSSFGFPRTVKHIDAALSEENTGKTYFFVANKYWRYDEYKRSMDPGYPKMIAHDFPGIGHKVDAVFMKDGFFYFFHGTRQYKFDPKTKRILTLQKANSWFNCRKN
- RFU, 37° C. (fluorescence of supernatant after 144 hours, replicate 1) [1]: 3490 RFU
- RFU, 37° C. (fluorescence of supernatant after 144 hours, replicate 2) [1]: 2980 RFU
- RFU, Avg 37° C. (fluorescence of supernatant after 144 hours) [1]: 3240 RFU
- RFU, 37° C. (fluorescence of supernatant after 144 hours, replicate 1) [2]: 1160 RFU
- RFU, 37° C. (fluorescence of supernatant after 144 hours, replicate 2) [2]: 1140 RFU
- RFU, Avg 37° C. (fluorescence of supernatant after 144 hours) [2]: 1150 RFU
- cleavage of insoluble collagen (7.5% SDS polyacrylamide gel, Coomassie Blue) [3]: after 24 hours incubation at 25 °C or 37° C., hMMP-1 partially cleaved the α1(I) and α2(I) collagen chains into ¾ and ¼ length digestion products for all hMMP-1 proteins tested

B4: cathepsin S (R&D systems, activated) (protein)
chain: LPDSVDWREKGCVTEVKYQGSCGACWAFSAVGALEAQLKLKTGKLVSLSAQNLVDCSTEKYGNKGCNGGFMTTAFQYIIDNKGIDSDASYPYKAMDQKCQYDSKYRAATCSKYTELPYGREDVLKEAVANKGPVSVGVDARHPSFFLYRSGVYYEPSCTQNVNHGVLVVGYGDLNGKEYWLVKNSWGHNFGEEGYIRMARNKGNHCGIASFPSYPEI
- degradation of soluble rat tail collagen Type I (1 hour at 37° C., SDS-Page gels, Coomassie Blue staining) [4]: Cathepsins B, D and S showed some slight degradation of rat collagen at the manufacture specified pH and no degradation of rat collagen at pH 8.0
